Measurements reported in the DeepSol protein solubility set.

Test: soluble on expression in E. coli; label from the status in PepcDB or PDB records

Sequence	soluble on expression in E. coli
MAHHHHHHMQRYLMNTSYLQGQLKSLYALHNKTVADYGELVQNLNEECTILCDVVPSYRISSTLENEDGGGQRKQKEVYNVQKLEHEILTQYTHFLQLLRKLSRKSHPEQQALGSRLCARLVKSSAPEFNHADALLSLAIDFANSKSVRVAQPCQTALSELLDDQKVSDTTEHIVGALLRIVRKRSYAMNPKLLNLLLHVRVAMVDVHREDLAEEKAKSKRLKKEDKELARQLQKSKARRDRAEIAAKQTRILHRIFVIYLRVIEASKTCSPVHQTKILAPTLEGLVKFAPLVNLELYQQLMEALKDLVKGGGTSRTRLRVGGTEGGSDGDNVDDKHEEETATSVTTRLHALVAVATLAQRDATATASEWRVDLSYFHEVLFRCLGEALELPSAESSSSAKMTREGEQEASNGDMDEVASQGSTSSAGSLSSQAFSIAQSMTQGTLVHQNASREWTFHVGLVLRAVDLLVLTQKHLPVARVTAILRRLIQATPLCPPHIAMSILALCHRIVLRYPLAGGVIVGGSDNVIAGRGAYNPEALQTASANADSSFTWELSLLSHSYHPTLRQVAETMCKHYHKVSKHQHGQAPIVTKQLDSLGPYEVIEEYDPSLGNLKPAAPLPTALKAEVRKRQREEAQAYEVA	not soluble
GSMYQLQFINLVYDTTKLTHLEQTNINLFIGNWSNHQLQKSICIRHGDDTSHNQYHILFIDTAHQRIKFSSFDNEEIIYILDYDDTQHILMQTSSKQGIGTSRPIVYERLV	soluble
MEHIYKLLRSFKWDCAKYLYKNTLNFKVKRLRRKKNIRVLFAVAESATWKSDCLYKAMAEHPRFTPSILVLPDEQKEKTLLKEEVDSCFNLFCRKGYACTYPYQNGKLINIRKKLKPDIIFYQKPYTFYPKSLLYYKNMNALFCYTNYAFHSLLTDWANDNEFFRLMWQNYYENESANVDLKKKFAGIFSNIVVTGLPVTDLFLTEKHEDKWKKTDKSRKRIIWAPHFSISDGGCLNYSTFLSIAEELLEFIKNTQLPVQMAFKPHPLLKSQLYNYSSWGKEKTDEYYAAWEFLPNAQLETNEYVDLFMTSDAMIHDCGSFTIEYHHTLKPVMYLVNGKEHTATMNSFAKAAYDLHYKGQTIQDIRNFIECTVLENSDYLLEKRKNFFKSYLLPPHNQSATENIIHAILGTGYYTEKKQR	not soluble
NSDSECPLSHDGYCLHDGVCMYIEALDKYACNCVVGYIGERCQYRDLKWWELR	soluble
MSLANRIRLHIWGDYACFTRPEMKVERVSYDVITPSAARGILSAIHWKPAINWVIDKIYVLKPIRFESVRRNELGAKISESKVSGAMKRKSVADLYTVIEDDRQQRAATVLKDVAYVIEAHAVMTSKAGVDENTTKHIEMFKRRALKGQCFQQPCMGVREFPAHFALIDDNDPLPLSQLSESEFNRDLGWMLHDIDFEHGNTPHFFRAELKNGVIDVPPFYAEEVKREGHHHHHH	soluble
MSRPPSRPRMMCARVLLLLSVTGLVLACETGPSSGDYEQAVMQDRVQRDMQMREKESVLPPGRREAFRGLNFYEVDPAYRYTVPLRRFETPDTVMIPESTGDLRPQQRIGEVTVPLPEGPEELVVFRGEGDTPRGRLWIPFADSTNRHATYKGGRYVDLTSTDSDSVVVDFNRAYNPTCAYNPDFACPLPPPENRIAVPVAAGEKRPTFGG	soluble
MGYVPIKNDYNEAQNKDSQSFLIMGLDNTIERKLGTTRTDAMMVITVNNKTKKITYLSLPRDSFVQIDAKNYQGMQRIEAAYTYDGPTASVNTVEKLLNIPINHYVVFNFLSFIKLIDAVGGIDVNVKQAFDGVTKDGPGSIHFDAGKQHLDGTKALSYARERHSDNDIMRGFRQQEIIQAVEDKLKSGQSIMKIMDIIDSLNGNIQTDVDSNELTHLVKEGLTWTNYDKQQLSFDWRTFSNEGRSMVELYPDSIENVRHQLRVSLNLEKPDERDQDGYVFHTNGEFLYQSDYTVQDEAAEENEMTSINGNTYIGVPGNTQTGPLPSVKTENGFIKLEHHHHHH	soluble
MISLPAGSRIWLVAGITDMRNGFNGLASKVQNVLKDDPFSGHLFIFRGRRGDQIKVLWADSDGLCLFTKRLERGRFVWPVTRDGKVHLTPAQLSMLLEGINWKHPKRTERAGIRI	not soluble
MSRPESVLQLARKFGEISAAQENDIHKSRLSLKLGGKENLTKPTLILSKSGPPTPIRHVAPTITHTLPNRPNIGGIASLKSEPKMSRPNMFKQMEKVESNTTTTAPPRQLNPNSIKDALLRWIQNRVAGYPNVNVTNFSSSWADGMAFCALIHRFAPNSFDFSKLDPNNRRYNFDLAFKVAEDNGIFPLLEVDDMIMMGDRPDWKCVFTYVQSFYKQFRDHP	not soluble
MGSSHHHHHHSSGLVPRGSHMSVPLYGFTSICGRRPEMEDAVSTIPRFLQSSSGSMLDGRFDPQSAAHFFGVYDGHGGSQVANYCRERMHLALAEEIAKEKPMLCDGDTWLEKWKKALFNSFLRVDSEIESVAPETVGSTSVVAVVFPSHIFVANCGDSRAVLCRGKTALPLSVDHKPDREDEAARIEAAGGKVIQWNGARVFGVLAMSRSIGDRYLKPSIIPDPEVTAVKRVKEDDCLILASDGVWDVMTDEEACEMARKRILLWHKKNAVAGDASLLADERRKEGKDPAAMSAAEYLSKLAIQRGSKDNISVVVVDLKPRRKLK	soluble
FDNLTDRLSRTLRNISGRGRLTEDNVKDTLREVRMALLEADVALPVVREFINRVKEKAVGHEVNKSLTPGQEFVKIVRNELVAAMGEENQTLNLAAQPPAVVLMAGLQGAGKTTSVGKLGKFLREKHKKKVLVVSADVYRPAAIKQLETLAEQVGVDFFPSDVGQKPVDIVNAALKEAKLKFYDVLLVDTAGRLHVDEAMMDEIKQVHASINPVETLFVVDAMTGQDAANTAKAFNEALPLTGVVLTKVDGDARGGAALSIRHITGKPIKFLGVGEKTEALEPFHPDRIASRILGMGDVLSLIEDIESKVDRAQAEKLASKLKKGDGFDLNDFLEQLRQMKNMGGMASLMGKLPGMGQIPDNVKSQMDDKVLVRMEAIINSMTMKERAKPEIIKGSRKRRIAAGCGMQVQDVNRLLKQFDDMQRMMKKMK	soluble
METTQTLRFKTKALAVLSKCYDHAQTHLKGGVLQVNLLSVNYGGPRLAAVANAGTAGLISFEVSPDAVAEWQNHQSPEEAPAAVSFRNLAYGRTCVLGKELFGSAVEQASLQFYKRPQGGSRPEFVKLTMEYDDKVSKSHHTCALMPYMPPASDRLRNEQMIGQVLLMPKTASSLQKWARQQGSGGVKVTLNPDLYVTTYTSGEACLTLDYKPLSVGPYEAFTGPVAKAQDVGAVEAHVVCSVAADSLAAALSLCRIPAVSVPILRFYRSGIIAVVAGLLTSAGDLPLDLSVILFNHASEEAAASTASEPEDKSPRVQPLGTGLQQRPRHTVSPSPSPPPPPRTPTWESPARPETPSPAIPSHSSNTALERPLAVQLARKRTSSEARQKQKHPKKVKQAFNPLI	soluble
MKIRLLVSILCILFAGCALQQTNRALQPDQRWVTQTLPNGLTYHLYPDSEQEVSIRLYVHAGSMQETAQQAGYAHFIEHMAFNGTRHYQHNDVIRMFEQSGAQFGADFNALTGYDRTVYQLDLPNAQNIDKALLWFADIADGLAFDADEVEKEKGVILGEFRASRTENMSLEQQFYLHQIQGTSYADRDPLGSRELVQAATPDSLKAFYQQWYQPQLAELVITGNFTLEQGQQWVENYFSSWKKGSTEKPASIYHQALNNQDLVAPVTAGESPSLTLIFPQGSAAIKDYASQQEFWRDDVGEQLLHTRLVAAFNDAAQAITGIYATHYEIEGQRYTLISVGFAAEQREKVQALLLETLASMRDYGVTKNELDIILRGYREHLTFLQEDREAITPASHANQKVYSIVFDTPIQATLDYQASLSEFIASATPEMINRHIQQQLSQNPVWVVGVAATEDAQALNKALPQWRNDLAQPGNQPIDQQIDSPFTQQFTAGEVVKQLDINDDPQVTYWQLDNGIDVYYLRNIEAKDRVFVQYASSGGQFALPADLLPAAEIATAVQTRSGLDTLNGSQFDRYLRQKDIGFYSYIASTSHGFEANSKAQELPELLEILHLLSTQVKVSPDQLNSVKTEFTQNRSAYFDSPIGAFFRTVTNQSFIETSPYRIRTPEQIAQVTAQQIEQVHQRLFSEGRNNTLVIVGDIERSQITPMLRQYVASIPLSKGTLSPMTSQLIKPVAPRLELALNNENSTQYSLRLISETQPRTAKTVFIDDMLQRIATQRLLAEVREHQGLDYTPQVIPYVVDGDILNDWVLSALVDPKSEPQVAKVMHEVARELAQGVTQQELDVVKQKFLIDMKPLNKSPEQQAYFMLRYAIHHYGVETIYKVEELTKSITLDDINQRAQTLFGKDTMSQELIMTPKANPKG	not soluble
MSLSFPQLHTVTSYSLLSSTVRIRSYVKQAKALGYQTLAITDINVLHGAVEFYEACQEAGIQPIIGLRLEYTPAEKEGHSELLLFAKNLKGYQQLMQLSSSKMTTEGPFYLAEHQSLLSDLFAVTLSAKGEVAQTFFEDEQQAVHAFQQLASYFDPQSLFVEHSFSMNQQRNPALFSFYQREQLPGVALQEVRHLTREEGFAVTVLESIKENNQLNITSQTPEIEGLNYLREAETTMEQMLQEGHHHHHH	not soluble
MPRASISDTIPMTMASIDAGSVRFTARADKRHLNPLGGVHGGFAATVLDSVTGCAIHSILEAGVGYGTVDLSVKRVKAVPEDTPLVAEGRVLHVPCAIGSQRADLMLAPPRLGRDRRCPAGLEHHHHHH	not soluble
MGHHHHHHSHENKKAKPVPWVEKYRPKCVDEVAFQEEVVAVLKKSLEGADLPNLLFYGPPGTGKTSTILAAARELFGPELFRLRVLELNASDERGIQVVREKVKNFAQLTVSGSRSDGKPCPPFKIVILDEADSMTSAAQAALRRTMEKESKTTRFCLICNYVSRIIEPLTSRCSKFRFKPLSDKIQQQRLLDIAKKENVKISDEGIAYLVKVSEGDLRKAITFLQSATRLTGGKEITEKVITDIAGVIPAEKIDGVFAACQSGSFDKLEAVVKDLIDEGHAATQLVNQLHDVVVENNLSDKQKSIITEKLAEVDKCLADGADEHLQLISLCATVMQQLSQNC	soluble
MGDASTQLSSYVKQVQTGHKPSTKEIVRFSKLFEDQLALEHLDRPQLVALCKLLELQTFGTNNLLRFQLLMKLKSIKADDEIIAKEGVTALSVSELQAACRARGMRSLGLTEEQLRQQLTEWQDLHLKENVPPSLLLLSRTFYLIDVKPKPIEIPLSGEAPKTDILVELPTFTESKENMVDLAPQLKGTKDEDFIQPPPVTSSPITPSTPISLPKGPITSSEEPTLQAKSQMTAQNSKASSKGA	soluble
GMATLGANASLYSEQHRITYYECDRTGRATLTTLIDIAVLASEDQSDALGLTTEMVQSHGVGWVVTQYAIDITRMPRQDEVVTIAVRGSAYNPYFAYREFWIRDADGQQLAYITSIWVMMSQTTRRIVKILPELVAPYQSEVVKRIPRLPRPISFEATDTTITKPYHVRFFDIDPNRHVNNAHYFDWLVDTLPATFLLQHDLVHVDVRYENEVKYGQTVTAHANILPSEVADQVTTSHLIEVDDEKCCEVTIQWRTLPEPIQ	soluble
MGSSIASSLMDPTQYYSQFISLQKASLEKAKTPYQNQISSYQSRIDLYASLKNALSDSLKTMSSFTTYESKTKLATSSNETSFTVSSTSSSVNGSYSIEVQNLATADT	not soluble
MGSDKIHHHHHHMPPLPVLNRPQIHTSVTEISHAIDRTIKEELFPVAYTTEEEQYFKTNPKPAYIDELIKDAKEFIDLQYSLKRNKIVLITSGGTTVPLENNTVRFIDNFSAGTRGASSAEQFLANGYSVIFLHREFSLTPYNRSFSHSINTLFLDYIDSEGKIKPEFAENVLKNKKLYDKYMEKEEKLLLLPFTTVNQYLWSLKSIAKLLNNSGCLFYLAAAVSDFFVPYSRLPQHKIQSGDNGKMGANNDTEGTTRTTPDGKLIVNLDPVPKFLRRLVESWATQAMIVSFKLETDESMLLYKCTQALDRYNHQLVIGNLLQTRNKQVIFVSPENRKGDWVRLDEKHHIIEEMIIPEVIARHDKWVAHSKTKLATK	not soluble
MQGEALKDFLFDKADDMKAVDIVTLDVKEKSSVTDYMIVCTGTSKRHVASIAEHVANEAKLSGLQPLGMNGENEGEWVVLDMGSVMLHVMQEAPRELYQLEKLWGLEHHHHHH	not soluble
